B1: Catenin beta-1 (Homo sapiens), P35222 (parent)
chain: MATQADLMELDMAMEPDRKAAVSHWQQQSYLDSGIHSGATTTAPSLSGKGNPEEEDVDTSQVLYEWEQGFSQSFTQEQVADIDGQYAMTRAQRVRAAMFPETLDEGMQIPSTQFDAAHPTNVQRLAEPSQMLKHAVVNLINYQDDAELATRAIPELTKLLNDEDQVVVNKAAVMVHQLSKKEASRHAIMRSPQMVSAIVRTMQNTNDVETARCTAGTLHNLSHHREGLLAIFKSGGIPALVKMLGSPVDSVLFYAITTLHNLLLHQEGAKMAVRLAGGLQKMVALLNKTNVKFLAITTDCLQILAYGNQESKLIILASGGPQALVNIMRTYTYEKLLWTTSRVLKVLSVCSSNKPAIVEAGGMQALGLHLTDPSQRLVQNCLWTLRNLSDAATKQEGMEGLLGTLVQLLGSDDINVVTCAAGILSNLTCNNYKNKMMVCQVGGIEALVRTVLRAGDREDITEPAICALRHLTSRHQEAEMAQNAVRLHYGLPVVVKLLHPPSHWPLIKATVGLIRNLALCPANHAPLREQGAIPRLVQLLVRAHQDTQRRTSMGGTQQQFVEGVRMEEIVEGCTGALHILARDVHNRIVIRGLNTIPLFVQLLYSPIENIQRVAAGVLCELAQDKEAAEAIEAEGATAPLTELLHSRNEGVATYAAAVLFRMSEDKPQDYKKRLSVELTSSLFRTEPMAWNETADLGLDIGAQGEPLGYRQDDPSYRSFHSGGYGQDALGMDPMMEHEMGGHHPGADYPVDGLPDLGHAQDLMDGLPPGDSNQLAWFDTDL

The assay covers variants of B1. To be noted: with src_human SRC.
In the case of Y333F, the “effect of a mutation on the interaction” value is given as “decreasing interaction”.

(Values after IntAct's records for PubMed 22056988.)
